Measured values taken from article PMC11262690.

Biological target: Nematocida displodere mechanosensitive ion channel of small conductance 2, MscS2Δ2–29 (His14-SUMO tag cleaved) (Nematocida displodere)
Test: cryo-EM structure; single-particle, 0.33 mg/mL in DDM, 200 kV Glacios; consensus refinement without symmetry 8.3 Å, focused refinement of two channels 7.7 Å

Substance: Nematocida displodere mechanosensitive ion channel of small conductance 2, MscS2Δ2–29 (His14-SUMO tag cleaved) (domain or fragment)
- heptameric channels in the superstructure: 6
- stoichiometry N: 7
